In PMC3724652:

Molecular target: rat GluA2igQ with a His8/Myc tag between residues 22 and 23 (rat)
Assay: AFM imaging of receptor-antibody complexes; receptors isolated by immunoaffinity chromatography from the total cellular pool, incubated with subunit- or tag-specific antibodies, adsorbed to mica at 0.04 nM, imaged in air in tapping mode; volumes of decorated particles and angles between two bound antibodies

Substance: rat GluA2igQ with a His8/Myc tag between residues 22 and 23 (receptor)
- stoichiometry N: 4
